Data published in patent US12258605B2, “Alkane oxidation by modified hydroxylases” (The California Institute of Technology, priority 2005, dated 2025).
Where a chain is given by its changes, count along the chain named. In names and notes the source's numbering stands. Marks after values point to notes of the source that are not given here.

B1: 35-E11-E464T: P450 BM-3 variant, SEQ ID NO:10; 35-E11 with E464T (protein)
chain: TIKEMPQPKTFGELKNLPLLNTDKPVQALMKIADELGEIFKFEAPGCVTRYLSSQRLIKEACDESRFDKNLSQALKFFRDFSGDGLFTSWTHEINWKKAHNILLPSFSQQAMKGYHAMMVDIAVQLVQKWERLNADEHIEVSEDMTRLTLDTIGLCGFNYRFNSFYRDQPHPFIISMVRALDEVMNKLQRANPDDPAYDENKRQCQEDIKVMNDLVDKIIADRKARGEQSDDLLTQMLNGKDPETGEPLDDGNISYQIITFLIAGHETTSGLLSFALYFLVKNPHVLQKVVEEAARVLVDPVPSYKQVKQLKYVGMVLNEALRLWPTFPAFSLYAKEDTVLGGEYPLEKGDEVMVLIPQLHRDKTIWGDDVEEFRPERFENPSAIPQHAFKPFGNGQRACIGQQFALHEATLVLGMMLKHFDFEDHTNYELDIKETLTLKPEGFVVKAKSKKIPLGGIPSPSTTQSAKKVRKKAENAHNTPLLVLYGSNMGTAEGTARDLADIAMSKGFAPQVATLDSHAGNLPREGAVLIVTASYNGHPPDNAKQFVDWLDQASADEVKGVRYSVFGCGDKNWATTYQKVPAFIDETLAAKGAENIADRGEADASDDFEGTYEEWREHMWSDVAAYFNLDIENSEDNKSTLSLQFVDSAADMPLAKMHGAFSTNVVASKELQQPGSARSTRHLEIELPKEASYQEGDHLGVIPRNYEGTVNRVTARFGLDASQQIRLEAEEEKLAHLPLAKTVSVEELLQYVELQDPVTRTQLRAMAAKTVCPPHKVELEALLEKQAYKEQVLAKRLTMLELLEKYPACEMKFSEFIALLPSIRPRYYSISSSPRVDEKQASITVSVVSGEAWSGYGEYKGIASNYLAELQEGDTITCFISTPQSEFTLPKDPETPLIMVGPGTGVAPFRGFVQARKQLKEQGQSLGEAHLYFGCRSPHEDYLYQEELENAQSEGIITLHTAFSRMPNQPKTYVQHVMEQDGKKLIELLDQGAHFYICGDGSQMAPAVEATLMKSYADVHQVSEADARLWLQQLEEKGRYAKDVWAG
modifications: mutant P450 35-E11-E464T protein sequence
notes: 35-E11 with E464T
B2: 23-1D: P450 BM-3 variant, SEQ ID NO:12; 35-E11 plus Q645R, P968L (protein)
chain: B1 chain with T464G, Q645R, P968L
modifications: Mutant P450 23-1D protein sequence
notes: 35-E11 plus Q645R, P968L
B3: 21-4G: P450 BM-3 variant, SEQ ID NO:13; 35-E11 plus D631N (protein)
chain: B1 chain with T464G, D631N
modifications: Mutant P450 21-4G protein sequence
notes: 35-E11 plus D631N

Test: Methane to methanol conversion (alcohol oxidase/Purpald)
Assay type: biochemical
Conditions: methane to methanol
Method: The 35-E11 variant was tested for the ability to convert methane to methanol using the method of Anthon and Barrett (Agric. Food Chem., 52:3749 (2004)). The method was optimized so that it could detect methanol concentrations in water as low as 10 μM.
The mutant BM-3 enzymes described below were purified using published procedures and used as catalysts in small reactions with methane. In glass head space vials containing magnetic stirring bars, BM-3 catalyst was added to 0.1 M potassium phosphate buffer (pH=8) saturated with methane. The vials were then crimped shut and charged to 20 psi with methane. To start the biotransformation, an NADPH regeneration system consisting of NADP+, isocitrate, and isocitric dehydrogenase was added through a syringe. The reaction was allowed to stir 12-15 hours. Methanol production was measured using a coupled enzyme assay. Aliquots of the reaction were transferred to 96-well microtitre plates and reacted with the enzyme alcohol oxidase for 5 minutes at room temperature. Alcohol oxidase converts the methanol produced by the BM-3 variants into formaldehyde which can be detected with the dye Purpald. To detect formaldehyde and quench the alcohol oxidase reaction, a solution of Purpald in 2 M NaOH was added and allowed to react for one hour. The purple color that Purpald forms in the presence of formaldehyde was quantified one hour later by spectrophotometrically reading the well at 550 nm and comparing the absorbance against similarly-treated solutions of BM-3, NADPH regeneration system, and methane-free buffer spiked with known concentrations of methanol. The results of these biotransformations are reported in Table 3 and sample spectra from the colorimetric assay are shown in FIG. 7.
Reactions for enzyme-catalyzed conversion of methane to methanol were carried out in 10 mL glass headspace vials. A 470 μL reaction mixture containing 5 μM purified BM-3 variant in 0.1 M potassium phosphate buffer (pH 8.0) was first added to the vial. The vial was immediately topped with a septum, pressurized with 30 psi of methane and shaken at 4° C. for 1 hour. […] For determination of total turnover, the reaction was allowed to proceed for 20 hours at room temperature.
The amount of methanol product formed during the 20 hr methane reaction was quantified colorimetrically with the use of alcohol oxidase and Purpald. 190 μL of the reaction mixture is transferred onto a single cell of a 96 well plate. 10 μL of 0.05 U/μL solution of alcohol oxidase (from Pichia pastoris, purchased from Sigma-Aldrich) was added to cell and allowed to incubate at room temperature for 5 minutes. During this time, the alcohol oxidase converts the methanol into formaldehyde. Purpald (168 mM in 2 M NAOH) was then added to form a purple product with the formaldehyde in solution. The purple color was read approximately 1 hour later at 550 nm using a Spectramax Plus microtiter plate reader. The concentration of methanol was determined based on the measure absorbance in comparison to a methanol calibration curve. The methanol calibration curve was generated with several standards. Each standard contained 100 μL of a methanol solution (10, 20, 40, 60, 100 μM) and 90 μL of the methane reaction mixture described above, without the methane pressurization.
The relative dimethyl ether (DME) activity was measured, 1 hour after treatment with Purpald, as the average net and absorbance at 550 nm from 8 microtitre plate DME reactions of the mutant compared to 8 equivalent reactions of 35-E11. All values were normalized by measuring the P450 concentration in each well with CO binding. “Asteriks” indicate criteria used to select mutants from libraries for further characterization. The oxidation rate is measured as absorbance change at 340 nm over 1 minute upon the addition of NADPH to 8 microtitre plate wells containing P450-containing cell lysate and compared to 8 equivalent reactions of 35-E11. […]
With B1 the “Methane TTN” value was 11. In the case of B2, the “Methane TTN” value is reported as 11. For B3, the “Methane TTN” value was 10.

Test: High-throughput dimethyl ether (DME) screen
Assay type: biochemical
Conditions: relative to 35-E11; normalized to P450 concentration
Method: Cell lysates for high throughput screening were prepared as described previously (Peters et al., J. Am. Chem. Soc. 125:13442 (2003); incorporated by reference herein). High-throughput dimethyl ether (DME) screens were performed in 96 well plates as described previously. Improved mutants were selected based on an increased signal compared to 9-10A (for the saturation mutagenesis libraries) and 1-12G (for the recombination library). Reactions on octane and propane were analyzed by gas chromatography as described.
(§1) Libraries of mutants of 35-E11 were screened for phenotypes indicative of either increased product formation on small gaseous substrates slightly larger than methane. Additionally, they were screened for increased coupling of the consumption of NADPH reducing equivalents to product formation. Product formation was determined by measuring total amount of dimethyl ether hydroxylation while increased coupling was determined primarily by decreased background NADPH consumption rates (measured spectrophotometrically at 340 nm in the absence of substrate).
The relative dimethyl ether (DME) activity was measured, 1 hour after treatment with Purpald, as the average net and absorbance at 550 nm from 8 microtitre plate DME reactions of the mutant compared to 8 equivalent reactions of 35-E11. All values were normalized by measuring the P450 concentration in each well with CO binding. “Asteriks” indicate criteria used to select mutants from libraries for further characterization. The oxidation rate is measured as absorbance change at 340 nm over 1 minute upon the addition of NADPH to 8 microtitre plate wells containing P450-containing cell lysate and compared to 8 equivalent reactions of 35-E11. All values were normalized by measuring the P450 concentration in each well with CO binding. The total turnover number (TTN) was measured as the absorbance at 550 nm of methane reactions with each mutant after treatment with alcohol oxidase and
Screening libraries by spectroscopically monitoring NADPH consumption rates in the presence of the alkane often selects for mutants with NADPH oxidation rates highly uncoupled to product formation. This can be overcome through the use of surrogate substrates that mimic desired substrates, yet yield species when hydroxylated that are easily detected either directly or with the addition of a dye. For example, the screen for the high-throughput identification of mutant BM-3 enzymes with activity towards propane as described previously uses dimethyl ether (DME) as a propane surrogate substrate. Upon hydroxylation, it decomposes into methanol and dye-sensitive formaldehyde. In addition, hexyl methyl ether (HME) may be used as a surrogate for octane. It shares most of the physical properties of octane, including solubility in buffer, size, shape, and strength of its C—H bonds. When HME is hydroxylated at its methoxy carbon, it also produces an equivalent of formaldehyde which is visually detected at concentrations as low as 10 μM with the dye Purpald (see FIG. 25). Hexanal, the aldehyde product formed when the α-carbon of the hexyl group is hydroxylated, is practically unreactive towards Purpald at some concentrations used in the present screens. Formaldehyde is approximately 42 times more sensitive to Purpald than hexanal (see FIG. 26). This disproportionate response makes HME, in contrast to the symmetric ether DME, a regio-selective screen for terminal alkane hydroxylation.
High-throughput screening. Single colonies were picked and inoculated by a Qpix robot (Genetix, Beaverton, OR) into 1-mL, deep-well plates containing LB (Amp*) medium (400 μL). The plates were incubated at 30° C., 250 rpm, and 80% relative humidity. After 24 h, 50 μL from this pre-culture were used to inoculate a 2-mL, deep-well plates containing […] TB (Amp^+) medium per well. Cultures were grown at 37° C., 220 rpm, and 80% relative humidity. […]
In the case of B1, the “Relative DME activity in screen” value is reported as 0.8. For B2, the “Relative DME activity in screen” value was 0.7. In the case of B3, the “Relative DME activity in screen” value is reported as 1.1.

Test: Background NADPH oxidation rate in screen (cell lysate, no substrate)
Assay type: biochemical
Conditions: relative to 35-E11
Method: as §1
The relative dimethyl ether (DME) activity was measured, 1 hour after treatment with Purpald, as the average net and absorbance at 550 nm from 8 microtitre plate DME reactions of the mutant compared to 8 equivalent reactions of 35-E11. All values were normalized by measuring the P450 concentration in each well with CO binding. “Asteriks” indicate criteria used to select mutants from libraries for further characterization. The oxidation rate is measured as absorbance change at 340 nm over 1 minute upon the addition of NADPH to 8 microtitre plate wells containing P450-containing cell lysate and compared to 8 equivalent reactions of 35-E11. All values were normalized by measuring the P450 concentration in each well with CO binding. The total turnover number (TTN) was measured as the absorbance at 550 nm of methane reactions with each mutant after treatment with alcohol oxidase and […]
For B1, the “Relative background NADPH oxidation rate” value was 0.7*. For B2, the “Relative background NADPH oxidation rate” value was 0.8*. For B3, the “Relative background NADPH oxidation rate” value was 0.7*.
